# Reference: patent US9575076
# Columns and labels:
# [1] = molecular target: Chorionic Gonadotropin (CG) (UniProt P01215); experiment: FRET quenching titration, BHQ-10 antibody and Alexa Fluor 488 antigen
# [2] = molecular target: Follicle Stimulating Hormone (FSH) (UniProt P01215); experiment: as above
# Luteinizing Hormone (LH) [3] = molecular target: Luteinizing Hormone (LH) (UniProt P01215); experiment: as above
# [4] = molecular target: Thyroid Stimulating Hormone (TSH) (UniProt P01215); experiment: as above
# [5] = molecular target: Thyroid Stimulating Hormone (TSH) (UniProt P01215); experiment: FRET competition on Alexa488-labelled antigen; competitor BHQ-labelled M4
# [6] = molecular target: Thyroid Stimulating Hormone (TSH) (UniProt P01215); experiment: FRET competition on Alexa488-labelled antigen; competitor BHQ-labelled 414B
# [7] = molecular target: Thyroid Stimulating Hormone (TSH) (UniProt P01215); experiment: FRET competition on Alexa488-labelled antigen; competitor BHQ-labelled 5409
# [8] = molecular target: Thyroid Stimulating Hormone (TSH) (UniProt P01215); experiment: FRET competition on Alexa488-labelled antigen; competitor BHQ-labelled T25C
# [9] = molecular target: Thyroid Stimulating Hormone (TSH) (UniProt P01215); experiment: FRET competition on Alexa488-labelled antigen; competitor BHQ-labelled ME130
# [10] = molecular target: Thyroid Stimulating Hormone (TSH) (UniProt P01215); experiment: i-STAT sandwich cartridge with TSH; capture beads ME130, detection conjugate M4
# [11] = molecular target: Thyroid Stimulating Hormone (TSH) (UniProt P01215); experiment: FRET competition on Alexa488-labelled antigen; competitor BHQ-labelled TSH Ab 544
# [12] = molecular target: Thyroid Stimulating Hormone (TSH) (UniProt P01215); experiment: i-STAT sandwich cartridge with TSH; capture beads ME130, detection conjugate 5409
# [13] = molecular target: Thyroid Stimulating Hormone (TSH) (UniProt P01215); experiment: i-STAT sandwich cartridge with TSH; capture beads ME130, detection conjugate T25C
# [14] = molecular target: Thyroid Stimulating Hormone (TSH) (UniProt P01215); experiment: i-STAT sandwich cartridge with TSH; capture beads ME130, detection conjugate TSH Ab 544
# [15] = molecular target: Chorionic Gonadotropin (CG) (UniProt P01215); experiment: i-STAT sandwich cartridge, 0.4 mIU/L TSH plus CG, signal gain over TSH alone; capture ME130, detection 5409
# Luteinizing Hormone (LH) [16] = molecular target: Luteinizing Hormone (LH) (UniProt P01215); experiment: i-STAT sandwich cartridge, 0.4 mIU/L TSH plus LH, signal gain over TSH alone; capture ME130, detection 5409
# [17] = molecular target: Follicle Stimulating Hormone (FSH) (UniProt P01215); experiment: i-STAT sandwich cartridge, 0.4 mIU/L TSH plus FSH, signal gain over TSH alone; capture ME130, detection 5409
# [18] = molecular target: Thyroid Stimulating Hormone (TSH) (UniProt P01215); experiment: i-STAT sandwich cartridge with TSH; capture beads M4, detection conjugate 5409
# [19] = molecular target: Thyroid Stimulating Hormone (TSH) (UniProt P01215); experiment: i-STAT sandwich cartridge with TSH; capture beads M4, detection conjugate T25C
# [20] = molecular target: Thyroid Stimulating Hormone (TSH) (UniProt P01215); experiment: i-STAT sandwich cartridge with TSH; capture beads M4, detection conjugate ME130
# [21] = molecular target: Thyroid Stimulating Hormone (TSH) (UniProt P01215); experiment: i-STAT sandwich cartridge with TSH; capture beads M4, detection conjugate TSH Ab 544
# [22] = molecular target: Thyroid Stimulating Hormone (TSH) (UniProt P01215); experiment: i-STAT sandwich cartridge with TSH; capture beads 414B, detection conjugate M4
# [23] = molecular target: Thyroid Stimulating Hormone (TSH) (UniProt P01215); experiment: i-STAT sandwich cartridge with TSH; capture beads 414B, detection conjugate 5409
# [24] = molecular target: Thyroid Stimulating Hormone (TSH) (UniProt P01215); experiment: i-STAT sandwich cartridge with TSH; capture beads 414B, detection conjugate TSH Ab 544
# [25] = molecular target: Chorionic Gonadotropin (CG) (UniProt P01215); experiment: i-STAT sandwich cartridge, 0.4 mIU/L TSH plus CG, signal gain over TSH alone; capture 414B, detection 5409
# Luteinizing Hormone (LH) [26] = molecular target: Luteinizing Hormone (LH) (UniProt P01215); experiment: i-STAT sandwich cartridge, 0.4 mIU/L TSH plus LH, signal gain over TSH alone; capture 414B, detection 5409
# [27] = molecular target: Follicle Stimulating Hormone (FSH) (UniProt P01215); experiment: i-STAT sandwich cartridge, 0.4 mIU/L TSH plus FSH, signal gain over TSH alone; capture 414B, detection 5409
# [28] = molecular target: Chorionic Gonadotropin (CG) (UniProt P01215); experiment: i-STAT sandwich cartridge, 0.4 mIU/L TSH plus CG, signal gain over TSH alone; capture 414B, detection TSH Ab 544
# Luteinizing Hormone (LH) [29] = molecular target: Luteinizing Hormone (LH) (UniProt P01215); experiment: i-STAT sandwich cartridge, 0.4 mIU/L TSH plus LH, signal gain over TSH alone; capture 414B, detection TSH Ab 544
# [30] = molecular target: Follicle Stimulating Hormone (FSH) (UniProt P01215); experiment: i-STAT sandwich cartridge, 0.4 mIU/L TSH plus FSH, signal gain over TSH alone; capture 414B, detection TSH Ab 544
# [31] = molecular target: Thyroid Stimulating Hormone (TSH) (UniProt P01215); experiment: i-STAT sandwich cartridge with TSH; capture beads 5409, detection conjugate M4
# [32] = molecular target: Thyroid Stimulating Hormone (TSH) (UniProt P01215); experiment: i-STAT sandwich cartridge with TSH; capture beads 5409, detection conjugate T25C
# [33] = molecular target: Thyroid Stimulating Hormone (TSH) (UniProt P01215); experiment: i-STAT sandwich cartridge with TSH; capture beads 5409, detection conjugate ME130
# [34] = molecular target: Thyroid Stimulating Hormone (TSH) (UniProt P01215); experiment: i-STAT sandwich cartridge with TSH; capture beads 5409, detection conjugate TSH Ab 544
# [35] = molecular target: Chorionic Gonadotropin (CG) (UniProt P01215); experiment: i-STAT sandwich cartridge, 0.4 mIU/L TSH plus CG, signal gain over TSH alone; capture 5409, detection T25C
# Luteinizing Hormone (LH) [36] = molecular target: Luteinizing Hormone (LH) (UniProt P01215); experiment: i-STAT sandwich cartridge, 0.4 mIU/L TSH plus LH, signal gain over TSH alone; capture 5409, detection T25C
# [37] = molecular target: Chorionic Gonadotropin (CG) (UniProt P01215); experiment: i-STAT sandwich cartridge, 0.4 mIU/L TSH plus CG, signal gain over TSH alone; capture 5409, detection ME130
# [38] = molecular target: Follicle Stimulating Hormone (FSH) (UniProt P01215); experiment: i-STAT sandwich cartridge, 0.4 mIU/L TSH plus FSH, signal gain over TSH alone; capture 5409, detection T25C
# Luteinizing Hormone (LH) [39] = molecular target: Luteinizing Hormone (LH) (UniProt P01215); experiment: i-STAT sandwich cartridge, 0.4 mIU/L TSH plus LH, signal gain over TSH alone; capture 5409, detection ME130
# [40] = molecular target: Follicle Stimulating Hormone (FSH) (UniProt P01215); experiment: i-STAT sandwich cartridge, 0.4 mIU/L TSH plus FSH, signal gain over TSH alone; capture 5409, detection ME130
# [41] = molecular target: Thyroid Stimulating Hormone (TSH) (UniProt P01215); experiment: i-STAT sandwich cartridge with TSH; capture beads T25C, detection conjugate M4
# [42] = molecular target: Thyroid Stimulating Hormone (TSH) (UniProt P01215); experiment: i-STAT sandwich cartridge with TSH; capture beads T25C, detection conjugate 414B
# [43] = molecular target: Thyroid Stimulating Hormone (TSH) (UniProt P01215); experiment: i-STAT sandwich cartridge with TSH; capture beads T25C, detection conjugate 5409
# [44] = molecular target: Thyroid Stimulating Hormone (TSH) (UniProt P01215); experiment: i-STAT sandwich cartridge with TSH; capture beads T25C, detection conjugate ME130
# [45] = molecular target: Thyroid Stimulating Hormone (TSH) (UniProt P01215); experiment: i-STAT sandwich cartridge with TSH; capture beads T25C, detection conjugate TSH Ab 544
# [46] = molecular target: Chorionic Gonadotropin (CG) (UniProt P01215); experiment: i-STAT sandwich cartridge, 0.4 mIU/L TSH plus CG, signal gain over TSH alone; capture T25C, detection 5409
# Luteinizing Hormone (LH) [47] = molecular target: Luteinizing Hormone (LH) (UniProt P01215); experiment: i-STAT sandwich cartridge, 0.4 mIU/L TSH plus LH, signal gain over TSH alone; capture T25C, detection 5409
# [48] = molecular target: Follicle Stimulating Hormone (FSH) (UniProt P01215); experiment: i-STAT sandwich cartridge, 0.4 mIU/L TSH plus FSH, signal gain over TSH alone; capture T25C, detection 5409
Substance,Kd [1],Kd [2],Kd (Luteinizing Hormone (LH) [3]),Kd [4],relative fluorescence [5],relative fluorescence [6],relative fluorescence [7],relative fluorescence [8],relative fluorescence [9],relative fluorescence [11],also measured
Fitzgerald 10C-CR2151M4 mouse monoclonal antibody,554 nM,210 nM,300 nM,0.18 nM,1 normalized,0.9 normalized,0.94 normalized,0.74 normalized,0.76 normalized,0.98 normalized,electrochemical current [18]: 20.7 nA; electrochemical current [19]: 22.5 nA; electrochemical current [20]: 39.9 nA; electrochemical current [21]: 0 nA
TSH capture mouse monoclonal antibody Biospacific Cat#5409 SPTNE-5,500 nM,1000 nM,1000 nM,0.1 nM,0.9 normalized,0.88 normalized,1 normalized,0.78 normalized,0.78 normalized,0.93 normalized,electrochemical current [31]: 15.2 nA; electrochemical current [32]: 34.6 nA; electrochemical current [33]: 53.6 nA; electrochemical current [34]: 1.41 nA; CG CR (%) [35]: 0.96%; LH CR (%) (Luteinizing Hormone (LH) [36]): 3.76%; CG CR (%) [37]: 0.78%; FSH CR (%) [38]: 0.65%; LH CR (%) (Luteinizing Hormone (LH) [39]): 10.1%; FSH CR (%) [40]: 2.43%

# Now those with a lower Kd [1], led by results:
Kd [1],Kd [2],Kd (Luteinizing Hormone (LH) [3]),Kd [4],relative fluorescence [5],relative fluorescence [6],relative fluorescence [7],relative fluorescence [8],relative fluorescence [9],relative fluorescence [11],Substance,also measured
45 nM,70 nM,54 nM,0.04 nM,0.77 normalized,0.99 normalized,0.82 normalized,0.88 normalized,1 normalized,0.82 normalized,AbCAM ME-130 mouse monoclonal antibody,electrochemical current [10]: 50.5 nA; electrochemical current [12]: 54.7 nA; electrochemical current [13]: -0.1 nA; electrochemical current [14]: 10.8 nA; CG CR (%) [15]: 11.8%; LH CR (%) (Luteinizing Hormone (LH) [16]): 11.1%; FSH CR (%) [17]: 3.9%
40 nM,300 nM,35 nM,0.08 nM,0.92 normalized,0.97 normalized,0.95 normalized,1 normalized,0.97 normalized,0.97 normalized,signaling mouse monoclonal antibody Fitzgerald Cat#10-T25C,electrochemical current [41]: 40.9 nA; electrochemical current [42]: 0.82 nA; electrochemical current [43]: 49.7 nA; electrochemical current [44]: 0.68 nA; electrochemical current [45]: 0.83 nA; CG CR (%) [46]: 13.7%; LH CR (%) (Luteinizing Hormone (LH) [47]): 9.89%; FSH CR (%) [48]: 6.25%
0.05 nM,0.1 nM,0.05 nM,0.04 nM,0.75 normalized,1 normalized,0.81 normalized,0.76 normalized,0.86 normalized,0.83 normalized,Seradyn anti-alpha-LH monoclonal antibody Cat#MIT0414B,electrochemical current [22]: 41.3 nA; electrochemical current [23]: 40.3 nA; electrochemical current [24]: 10.2 nA; CG CR (%) [25]: 84.6%; LH CR (%) (Luteinizing Hormone (LH) [26]): 348%; FSH CR (%) [27]: 260%; CG CR (%) [28]: 39.2%; LH CR (%) (Luteinizing Hormone (LH) [29]): 467%; FSH CR (%) [30]: 219%
